The values that follow are results of earlier work, collected in PMC11548882.

As usually defined, the Kd is the constant that tells how readily two partners part at equilibrium.

The series concerns the target EGFR (Homo sapiens) (UniProt P00533).

EGF (from UniProt P01133): the Kd was 4 nM.
